Test results reported in patent publication US20230167415A1.

Assays:
[1] = target: WNV IS98-ST1 M-I36F/A43G double mutant virions (E protein at the surface, M protein I36F and A43G) (West Nile virus, strain IS98-ST1); assay: direct ELISA, coated UV-inactivated virus produced in Vero cells
[2] = target: WNV IS98-ST1 M-I36F/A43G double mutant virions (E protein at the surface, M protein I36F and A43G) (West Nile virus, strain IS98-ST1); assay: indirect non-competitive ELISA, Vero-produced virus captured by polyclonal anti-WNV, HRP-conjugated 4G2

Monoclonal antibody (mAb) 4G2 anti-Flavivirus E protein
fold decrease in recognition compared to wild-type and M-A43G [1]: 1.2 fold
fold decrease in recognition [2]: 1.2 to 2 fold
